From publication PMC6153294 (The Journal of Biological Chemistry, 2018) come the findings set out here.

The test deals with T1, recombinant FGFR1c extracellular domain protein (Homo sapiens, UniProt P11362).
T1 construct: FGF receptor 1, 'c' splice isoform, human, extracellular domain; also called human FGFR1c
The test can be described thus: SPR; kinetic-binding assay on Biacore T200: His-tagged human β-Klotho and FGFR1c captured (about 40 RU and 60 RU) on immobilised mouse anti-His antibody (CM5); 39F7 (100 nM) and FGF21 (500 nM) injected in PBS, 0.1 mg/ml BSA, 0.005% Surfactant P20. The note with it: both partners purified. (Surface plasmon resonance follows binding to a sensor surface in real time, without labels.)

T1 sequence (P11362 22-376): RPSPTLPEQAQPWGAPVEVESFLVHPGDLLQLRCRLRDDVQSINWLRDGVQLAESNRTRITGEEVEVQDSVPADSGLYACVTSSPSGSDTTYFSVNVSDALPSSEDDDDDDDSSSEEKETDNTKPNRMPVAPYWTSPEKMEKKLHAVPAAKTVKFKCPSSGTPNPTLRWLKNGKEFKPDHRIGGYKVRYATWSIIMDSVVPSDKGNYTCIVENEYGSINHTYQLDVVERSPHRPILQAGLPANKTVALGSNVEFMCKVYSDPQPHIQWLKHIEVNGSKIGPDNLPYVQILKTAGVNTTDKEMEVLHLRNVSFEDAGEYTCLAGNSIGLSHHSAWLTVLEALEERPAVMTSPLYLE

B1: 39F7 agonistic monoclonal antibody against β-Klotho (full IgG) (antibody, V domains shown)
VH: QVQLVESGGGVVQPGRSLRLSCAASGFTFSNYGIHWVRQAPGKGLEWVAVIWYDGSIKYYADSVKGRFTISRDNSKNTLYLQMNSLRAEDTAVYYCARDRAAAGLHYYYGMDVWGQGTTVTVSS
VL: not shown
notes: Identified from an immunisation campaign in XenoMouse with a complex of β-Klotho and FGFR1c; also called mAb 39F7; 39F7 IgG; copies: 2 + 2
As for B1, the binding result is given as “no binding (tested: 100 nM)”.
